Legend:
[1] = Thermal stability of secretion-expressed picALuc30 (heat treatment, then emission value); format: physicochemical
Method: In the same manner as in Experiment 2, the plasmid was transfected into COS-7 cells and the medium was collected. The culture supernatant containing picALuc30 was incubated for 10 minutes at room temperature (25° C.), 40° C., 50° C., 60° C., 70° C., 80° C., or 90° C., and then the emission value was measured. […] (FIG. 22), indicating a sufficient level of practical utility.

[2] = Measurement of specific activity (enzyme concentrations adjusted by Western blot signal); format: biochemical
Method: The specific activities of NanoLuc®, ALuc30 wt, and picALuc30 were measured, with their enzyme concentrations adjusted based on the Western blot signal intensity obtained in Experiment 6.

[3] = Specific activity of picALuc30 expressed in Escherichia coli versus secretion-expressed by COS-7 cells; format: biochemical; settings: concentrations adjusted by Western blotting
Method: • (1) A DNA sequence coding for picALuc30 was inserted into a pET32 vector to prepare a plasmid. Transformation was carried out into Escherichia coli SHuffle T7 express lysY (New England Biolab). • (2) Escherichia coli from (1) was inoculated into an LB plate (containing […] of ampicillin). • (3) Next day, one colony was taken out, and cultured with shaking overnight at 30° C. in a test tube containing 2 mL of LB medium (containing […] of ampicillin). • (4) 1 mL of (3) was added to 100 mL of LB medium (containing […] of ampicillin), followed by shaking culture at 30° C. in a 500-mL flask until the absorbance OD600 reached about 0.4. • (5) When the absorbance OD600 reached about 0.4, 40 μL of 1-M isopropyl-β-thiogalactopyranoside was added, followed by overnight culture at 16° C. • (6) The bacterial cells were collected, followed by purification of the protein using HisTALON Buffer Set and TALON Metal Affinity Resin (both from Takara Bio Inc.). From 100 mL of the medium, 1.7 mg of picALuc30 was obtained.

[4] = Emission value of secretion-expressed luciferase in COS-7 culture medium, coelenterazine h substrate; format: biochemical; settings: Experiment 5
Method: (§1) • (1) COS-7 cells derived from the kidney of African green monkey were inoculated in a 24-well dish, and on the next day, subconfluency was attained. • (2) 25 μL of Opti-MEM (Thermo Fisher Scientific™), 400 ng (2 μL) of the plasmid, and 1 μL of P3000 (Invitrogen™, Waltham, MA) were mixed. • (3) 25 μL of Opti-MEM and 1 μL of lipofectoamine 3000 (Invitrogen™) were mixed. • (4) (2) and (3) were mixed together, followed by incubation at room temperature for 5 minutes. • (5) The mixture was added to the medium of (1). • (6) 500 μL of Dulbecco's modified Eagle's medium was added, followed by culturing the cells at 37° C. for 1 day and then collecting the medium. The medium contained secretion-expressed luciferase. • (7) To 100 μL of the medium, coelenterazine was added as a substrate at a final concentration of 5 μM, followed by measuring the emission value by using Enspire multi-mode plate reader (PerkinElmer™, Waltham, MA).
The emission value was measured in the same manner as in Experiment 2 except that coelenterazine h was used as a substrate in a final concentration of 5 μM. […] The emission value was measured in the same manner as in Experiment 2 except that coelenterazine h was used as a substrate in a final concentration of 25 μM.

[5] = Stability of protein terminus: Western blot detection of Flag-tag and His-tag in culture supernatant; settings: secretion-expressed luciferase in COS-7 culture supernatant; Western blotting
From the text: In the same manner as in Experiment 2, the plasmid was transfected into COS-7 cells and culture supernatant was collected. Flag-tag added to the N terminus of each secretion-expressed luciferase and His-tag added to the C terminus thereof were detected by Western blotting (SDS-PAGE, Mini-PROTEAN TGX Gel StainFree 4-15% (Bio-Rad™, Hercules, CA)) (FIG. 17). The antibodies used were Anti 6×Histidine, Monoclonal Antibody (9C11), Peroxidase Conjugated (manufactured by FUJIFILM Wako Pure Chemical Corporation, 1:1000) and Monoclonal ANTI-FLAG (R) M2-Peroxidase (HRP) antibody produced in mouse, clone M2 (manufactured by Sigma-Aldrich™, St. Louis, MO, 1/1000), respectively, and detection was performed with Amesham Imager 680 (Cytiva™, Marlborough, MA).

[6] = Emission value of secretion-expressed luciferase in COS-7 culture medium, furimazine substrate; format: biochemical; settings: Experiment 5; furimazine in the concentration recommended by the manufacturer
Method: as §1
The emission value was measured in the same manner as in Experiment 2 except that furimazine, which was available from Promega™ as a NanoLuc® substrate, was used as a substrate in the concentration recommended by the manufacturer.

[7] = Emission value of secretion-expressed luciferase in COS-7 culture medium, coelenterazine substrate; format: biochemical; settings: for emission values (rank order): Experiment 5
Method: as §1
By the same manner as in Experiment 2, the emission value was measured.
The emission value was measured in the same manner as in Experiment 2 except that the final concentration of coelenterazine was changed to 0.5 μM. […] The emission value was measured in the same manner as in Experiment 2 except that the final concentration of coelenterazine was changed to 5 μM.

[8] = Thermal stability of picALuc30 purified from Escherichia coli; format: physicochemical; settings: expressed in Escherichia coli
[9] = GLuc: when secretion expressed from cells; cited from earlier work

Molecule | activity remained ([1]; 10-minute incubation at 50° C.) | activity remained ([1]; 10-minute incubation at 60° C.) | activity remained ([1]; 10-minute incubation at 70° C.) | maximum emission value ([2]; Experiment 7) | specific activity ([2]; coelenterazine or coelenterazine h as substrate) | specific activity, secretion expressed by COS-7 cells versus prepared in Escherichia coli [3] | emission values (rank order) ([4]; coelenterazine h 5 μM) | emission values (rank order) ([4]; coelenterazine h 25 μM) | stability of protein termini (Flag-tag and His-tag detection) [5] | emission value [6] | emission value ([7]; Experiment 2, coelenterazine 5 μM, medium of transfected COS-7 cells) | emission values (rank order) ([7]; coelenterazine 0.5 μM) | emission values (rank order) ([7]; coelenterazine 5 μM) | emission value compared with NanoLuc and TurboLuc ([7]; secretion-expressed, substrate coelenterazine or coelenterazine h in a high concentration (summary of Experiment 5)) | activity after heat treatment ([8]; 10-minute incubation at 60° C.) | activity remained ([8]; 10-minute incubation at 70° C.) | activity remained ([8]; 10-minute incubation at 80° C.) | emission value (known) [9]
picALuc30: SEQ ID NO: 51; amino acids 54 to 175 of ALuc30 wt, without the N terminus and C terminus; 13 kDa luciferase (protein, picALuc30, amino acids 54 to 175 of ALuc30 wt, without the N terminus and C terminus; 13 kDa luciferase) KLPGKKLPLEVLKELEANAQKAGCTRGCLICLSHIKCTAKMKKWLPGRCESWEGDKETGQGGIGEAIVDIPEIPGFKELAPMEQFIAQVDLCADCTTGCLKGLANVKCSALLKKWLPSRCAG | ≥ 80% | ≥ 80% | ≥ 50% | same maximum emission value as NanoLuc® | the same | approximately the same | TurboLuc™=ALuc30 wt>>NanoLuc®>picALuc30>GLuc | picALuc30>>NanoLuc®=TurboLuc™=ALuc30 wt>>GLuc | both termini remaining | low as compared to NanoLuc® and TurboLuc™ | the same as or higher than that of ALuc30 wt | NanoLuc®>>picALuc30>TurboLuc™>ALuc30 wt>GLuc | ALuc30 wt=picALuc30>NanoLuc®>TurboLuc™>GLuc | equal to or higher than NanoLuc® and TurboLuc™ | lost little activity | ≥ 90% | ≥ 80% | –
TurboLuc™: known luciferase, about 16 kDa; SEQ ID NO: 74 (protein, listed as Metrisia longa) MEAEAERGKLPGKKLPLEVLIELEANARKAGCTRGCLICLSKIKCTAKMKKYIPGRCADYGGDKKTGQAGIVGAIVDIPEISGFKEMEPMEQFIAQVDRCADCTTGCLKGLANVKCSDLLKKWLPGRCATFADKIQSEVDNIKGLAGD | – | – | – | – | – | – | TurboLuc™=ALuc30 wt>>NanoLuc®>picALuc30>GLuc | picALuc30>>NanoLuc®=TurboLuc™=ALuc30 wt>>GLuc | N terminus was lost | high emission values | – | NanoLuc®>>picALuc30>TurboLuc™>ALuc30 wt>GLuc | ALuc30 wt=picALuc30>NanoLuc®>TurboLuc™>GLuc | – | – | – | – | relatively high

— patent publication US12578329B2, “Reagent kit containing polypeptide for use in detection of intermolecular interactions” (SHIMADZU CORPORATION, priority 2021, dated 2026)
